# B1: LNT113: fusion polypeptide: Cecropin A, (GGGGS)3 linker, mutant endolysin mtEC340; recombinant form with C-terminal His tag (protein)
# chain: MKWKLFKKIEKVGQNIRDGIIKAGPAVAVVGQATQIAKGGGGSGGGGSGGGGSVSRNISNNGIKFTAAFEGFRGTAYRATPNEKYLTIGYGSYGPHVEPGKTITPGQGLLLLNRDMAKAVAAVDAVAHHSLTQSQFDAVCDLVYNAGAGVIAAATGTGKALRSGDVATLRAKLALFINQNGKPLLGLRRRTAGRLALFDGKPWQEAEAIGRAVKG
# modifications: synthetic_Met+Cecropin A+GGGGS3 linker+mtEC340
# notes: fusion polypeptide: Cecropin A, (GGGGS)3 linker, mutant endolysin mtEC340; recombinant form with C-terminal His tag
# Columns and labels:
# E. coli [1] = assay: MIC and MBC, broth microdilution in CAA medium; format: cell-based, Escherichia coli
# Method: The MIC of the LNT113 or antibiotic was determined using modification of the broth microdilution method in a 96-well, round bottom, microplate according to the previously described method (Heselpoth et al., 2019). Exponentially grown cells were diluted to a concentration of 10^6 CFU/ml in a CAA medium, and then cultured with recombinant LNT113 (1-64 μg/ml) or antibiotics at 35° C. for 20 hours. […] The MBC was defined as the lowest concentration of the antibacterial agent with no growth on a plate. All analyses were performed in duplicate.
# E. coli [2] = assay: Checkerboard assay (MIC in combination, FIC index); format: cell-based, Escherichia coli
# Method: LNT113 was vertically diluted 2-fold and the antibiotic was serially diluted horizontally in a 96-well plate. Bacterium at a concentration of 10^6 CFU/ml were added to each well in a CAA medium. […] The fractional inhibitory concentration (FIC) for the LNT113 or antibiotic was calculated by dividing the MIC of two drugs by combining it with the MIC of each drug alone. […] The FICI was considered as a synergistic effect ≤0.5, an additive >0.5 ˜≤1, an independent effect (indifference)>1.0 ˜≤2, and an antagonistic effect (antagonism) >2.
molecule,measurement,setting,value
B1,MBC,E. coli [1]; E. coli ATCC 8739,8 µg/mL
same,MIC,E. coli [1]; E. coli ATCC 8739,8 µg/mL
same,MBC,E. coli [1]; E. coli ATCC 25922,64 µg/mL
same,MIC,E. coli [1]; E. coli ATCC 25922,64 µg/mL
same,MBC,E. coli [1]; E. coli ATCC 51739,8 µg/mL
same,MIC,E. coli [1]; E. coli ATCC 51739,8 µg/mL
same,MBC,E. coli [1]; E. coli CCARM 1A746,4 µg/mL
same,MIC,E. coli [1]; E. coli CCARM 1A746,4 µg/mL
same,MBC,E. coli [1]; E. coli CCARM 1G490,16 µg/mL
same,MIC,E. coli [1]; E. coli CCARM 1G490,16 µg/mL
same,MBC,E. coli [1]; E. coli ECOR 1,8 µg/mL
same,MIC,E. coli [1]; E. coli ECOR 1,8 µg/mL
same,MBC,E. coli [1]; E. coli ECOR 2,8 µg/mL
same,MIC,E. coli [1]; E. coli ECOR 2,8 µg/mL
same,MBC,E. coli [1]; E. coli ECOR 9,4 µg/mL
same,MIC,E. coli [1]; E. coli ECOR 9,4 µg/mL
same,MBC,E. coli [1]; E. coli ECOR 15,32 µg/mL
same,MIC,E. coli [1]; E. coli ECOR 15,32 µg/mL
same,MBC,E. coli [1]; E. coli ECOR 35,16 µg/mL
same,MIC,E. coli [1]; E. coli ECOR 35,16 µg/mL
same,MBC,E. coli [1]; E. coli ECOR 36,>64 µg/mL
same,MIC,E. coli [1]; E. coli ECOR 36,>64 µg/mL
same,MBC,E. coli [1]; E. coli ECOR 43,16 µg/mL
same,MIC,E. coli [1]; E. coli ECOR 43,16 µg/mL
same,MBC,E. coli [1]; E. coli ECOR 45,4 µg/mL
same,MIC,E. coli [1]; E. coli ECOR 45,4 µg/mL
same,MBC,E. coli [1]; E. coli ECOR 52,>64 µg/mL
same,MIC,E. coli [1]; E. coli ECOR 52,64 µg/mL
same,MBC,E. coli [1]; E. coli ECOR 69,>64 µg/mL
same,MIC,E. coli [1]; E. coli ECOR 69,>64 µg/mL
same,MBC,E. coli [1]; E. coli F485,4 µg/mL
same,MIC,E. coli [1]; E. coli F485,4 µg/mL
same,MBC,E. coli [1]; E. coli F524,8 µg/mL
same,MIC,E. coli [1]; E. coli F524,8 µg/mL
same,MBC,E. coli [1]; E. coli F576,4 µg/mL
same,MIC,E. coli [1]; E. coli F576,4 µg/mL
same,MBC,E. coli [1]; E. coli F716,>64 µg/mL
same,MIC,E. coli [1]; E. coli F716,>64 µg/mL
same,MBC,E. coli [1]; E. coli F852,16 µg/mL
same,MIC,E. coli [1]; E. coli F852,8 µg/mL
same,MBC,E. coli [1]; E. coli FORC81,8 µg/mL
same,MIC,E. coli [1]; E. coli FORC81,8 µg/mL
same,MBC,E. coli [1]; E. coli UPEC 90,64 µg/mL
same,MIC,E. coli [1]; E. coli UPEC 90,64 µg/mL
same,MBC,E. coli [1]; E. coli UPEC 3038,16 µg/mL
same,MIC,E. coli [1]; E. coli UPEC 3038,16 µg/mL
same,MBC,E. coli [1]; E. coli UPEC 3042,16 µg/mL
same,MIC,E. coli [1]; E. coli UPEC 3042,16 µg/mL
same,MBC,E. coli [1]; E. coli UPEC 3051,16 µg/mL
same,MIC,E. coli [1]; E. coli UPEC 3051,16 µg/mL
same,MBC,E. coli [1]; E. coli UPEC 3150,8 µg/mL
same,MIC,E. coli [1]; E. coli UPEC 3150,8 µg/mL
same,MBC,E. coli [1]; E. coli UPEC 3151,64 µg/mL
same,MIC,E. coli [1]; E. coli UPEC 3151,64 µg/mL
same,MBC,E. coli [1]; E. coli UPEC 3163,16 µg/mL
same,MIC,E. coli [1]; E. coli UPEC 3163,16 µg/mL
same,MBC,E. coli [1]; E. coli UPEC 3164,32 µg/mL
same,MIC,E. coli [1]; E. coli UPEC 3164,32 µg/mL
same,MBC,E. coli [1]; E. coli UPEC 3168,8 µg/mL
same,MIC,E. coli [1]; E. coli UPEC 3168,8 µg/mL
same,MBC,E. coli [1]; E. coli UPEC 3181,8 µg/mL
same,MIC,E. coli [1]; E. coli UPEC 3181,8 µg/mL
same,MBC compared with MIC,E. coli [1]; various E. coli strains,same as MIC
same,MIC in most of the strains,E. coli [1]; various E. coli strains of Table 2,4 to 64 µg/mL
same,MIC of endolysin combined with colistin: LNT113,"E. coli [2]; E. coli ATOCB739, Colistin 0",8 µg/mL
same,MIC of endolysin combined with colistin: LNT113,"E. coli [2]; E. coli ATOCB739, Colistin 0.0625",4 µg/mL
same,MIC of endolysin combined with colistin: LNT113,"E. coli [2]; E. coli ATOCB739, Colistin 0.5",2 µg/mL
same,MIC of endolysin combined with colistin: LNT113,"E. coli [2]; E. coli ATOCB739, Colistin 1",1 µg/mL
same,MIC of endolysin combined with colistin: LNT113,"E. coli [2]; E. coli FORC81, Colistin 0",8 µg/mL
same,MIC of endolysin combined with colistin: LNT113,"E. coli [2]; E. coli FORC81, Colistin 1",4 µg/mL
same,MIC of endolysin combined with colistin: LNT113,"E. coli [2]; E. coli FORC81, Colistin 4",2 µg/mL
same,MIC of endolysin combined with colistin: LNT113,"E. coli [2]; E. coli FORC81, Colistin 8",<0.25 µg/mL
same,MIC of endolysin combined with colistin: LNT113,"E. coli [2]; E. coli UPEC3150, Colistin 0",8 µg/mL
same,MIC of endolysin combined with colistin: LNT113,"E. coli [2]; E. coli UPEC3150, Colistin 0.0625",4 µg/mL
same,MIC of endolysin combined with colistin: LNT113,"E. coli [2]; E. coli UPEC3150, Colistin 0.5",2 µg/mL
same,MIC of endolysin combined with colistin: LNT113,"E. coli [2]; E. coli UPEC3150, Colistin 2",1 µg/mL
